Test results reported in the DeepSol protein solubility set.

Assay: soluble on expression in E. coli; label from the status in PepcDB or PDB records

| Sequence | soluble on expression in E. coli |
| --- | --- |
| MGSDKIHHHHHHMAILTITKQFGSGGGEIGSAVANLLGYEYIPLKRVFEEAGQAGNRIKKLADEVSKSVPGLWERTDWSFLAFVAFSQSTILNYALQNNIVVMTRGGNMLLKSIPHALRILVTAPFDVRVRRIMEREEISEEIAVMMAKKADREMAVTIQQIYGTNWMDPTEYDQVIDTSKQNWNEIARSLKDSLMAKEKDFTAEAQKILNMKALATYIKVKIMTSPAFITPTLEVEMKGDILVISGVVRNPDQHKRIEEEVKKLAGDRYVEFHIHYRGSWPFRGI | not soluble |
| MAGNSNLMIKTLRKISEILKKPPKASSESDVTVRDKACQALGSIKRLIGDTITAFIGPISTETAKIEKINQYQQEAAEEFKKFQETQPKAGGDGGAENSAENLDENQENSPEKAEKPQVLDAWELLEPEDCSKKIDKSVETQLIDKNWKERLAGAENVKKSMENAGRIEISERLTEISKLLMKIVEKDVNVNVGAISAQILAEIAKKSRFSFAPLALRAFPVVFDKLKDKKAILRDALVEFCDEAANTTPLSAYSEAVITALSNKNPQARQQTALFLSRFFAKNDPKTVETEAVKQLAEHILKTSNDADKEVREAALRIVAAVQKCLGEGVAKRLLAEVYDDKLKAEKLPPLIEELEKEFGSSASPEMLRLAKHYKIGASSTSAPPKTTAAGAPKRPSSAVAPRRAPPASAAPTRRAPSPKAPVVAPTRRAPSPKAPVASVAPVKPKPFVARPAPSFGKPRAAVAPARAPQITQRAPAATRPSTSAIRVTPIAPNVVRNGAPTTAQQAPRKPIGIARPQTSSGIAAPGAPRSRIAMPTTSSSSLARRPGSASSSVPRVPTGAASMTSSSRIRPPSRPGSRPGSRNE | not soluble |
| MSLTHSTMHPYISLLDNEIYTHQGKEVITNMYNIIEKNLTLNLIANNVQYHPNQKTISFTHPSITIFNNKNIAIWYITCNQAQLYHQKKTLNLHGQVFINQIVKKICTQSIITNQLLIDLNNQSIISNNKTIIHGHYFYSIGSCMNINLHTQTTTLFGKIYTQYEIQNMEGHHHHHH | not soluble |
| MAHHHHHHMAVPHGMLISRNDITPDSLVDVPGDRKIVEQISNTMANSSLFKMEKEDHTLANLLRMKLHESPFVQIAGYRVPHPTKHNVELRVQTASNGTDAPVPAPKKALQDAVDGCLKDLEVFEEQLRREAQLKGLEASPS | not soluble |
| MGSDKIHHHHHHMRIDTVNVLLEALPYIKEFYGKTFVIKFGGSAMKQENAKKAFIQDIILLKYTGIKPIIVHGGGPAISQMMKDLGIEPVFKNGHRVTDEKTMEIVEMVLVGKINKEIVMNLNLHGGRAVGICGKDSKLIVAEKETKHGDIGYVGKVKKVNPEILHALIENDYIPVIAPVGIGEDGHSYNINADTAAAEIAKSLMAEKLILLTDVDGVLKDGKLISTLTPDEAEELIRDGTVTGGMIPKVECAVSAVRGGVGAVHIINGGLEHAILLEIFSRKGIGTMIKELEG | not soluble |
| MTAKTEDNLKEYTRSQVEQHCTHDDLWLLFRDKVYNMTPYFNQHPGGLAILRYAGKDVTTVLPFVVSHGIAWKIVEQKLQEHLIGKLKE | not soluble |
| MSERDAIRAFSHMLETIFVRMRAEGTGSQTDAMQRWLDLYNVGSLPIDKKSYKALRLMDRETTDQQKEDATCAICLDNLQNNVDIPEDHVIKEELKIDPTTFGTTVIVMPCKHRFHYFCLTLWLEAQQTCPTCRQKVKTDKEVEEEERQRNLEELHDSMYG | not soluble |
| MAKVIFDENRCKGCKLCTTVCPKKIVVMNEDKLNQKGFHPAGVVDMDKCIGCAFCATICPDCVIEVYK | not soluble |
| MSLKVYVVKKGYRPGIYHSWPEAEEQVKGFPGAEYKSFSNIMEALDYQQMDPEDALKALQGAEDKLQAAIAKVRQGGSKKKQAESQKEFAASSKYAAHIFTDGGCRNNGTHKGGHVQADDKAAWAYLIEYGGQKLSASGGRFGATNNEMEMTAFLESLKKLEELGLNDQPLLFSLDSQYVIKAVSDNDQGPAWIKGWQRRGWKKADGSPVANRELWQEIAKEMAKFAQPEFEWVKGHANSAGNNFVDGLLNKYMDQEGHHHHHH | soluble |
| MGSDKIHHHHHHMESFYRTHAYLVEHTNAPVRRDLMDEIDWSDRLIGIKGTRGVGKTTFLLQYAKEKFGTDRSCLFINMNNFYFSGHSLVDFANEFQKRGGKVLLIDQVFKHPEWSKELRMCYDRFPSLKIVFTGSSVMRLKEENLELRDIAKSYNLRGFSFREFLNLQTGMKFRAYSLEEILSTHEQIAKGVLSKVRPLDYFQDYLHHGFYPFFLEKRNFSENLLKTMNMMVEVDILLIKQIELKYLSKIKKLLYLLAVDGPKAPNVSQLASDVQTSRATVMNYIKYLADARLINLVYPKGEEFPKKPSKIMMHNSNLMYSIYPVKVEEQDVLDTFFVNTLWKDHKVHKGDKNVSFMVDEVMPFKICAEGTKIKNNPDVTYALQKAEIGRGNQIPLWMFGFLY | not soluble |
| MDTQTLNSDLRVFMHHIYEFEKGVRSMVLATLANDDIPYAEERLRSRQIPYFAQPTPNTERTNLFFGCKECMEAIRLFVSGRSLNSLTPEEDFIIGAMLGYDICRQCERYCRRKSNS | soluble |
| MGSDKIHHHHHHMIETRQKQERVILIGVALPNSENFDLSMEELASLAKTAGAEVVQTHTQKRDHYDSKSFIGSGKLLEIKQIIATDAIDSVIVNNRLTPRQNAYLEAELGVKVIDRMQLILDIFAMRARSHEGKLQVHLAQLKYMLPRLVGQGIMLSRQAGGIGSRGPGESQLELNRRSIRKQIADIERQLKNAEKNRETNREKRLDSQIFKIGLIGYTNAGKSTIMNVLTDNKQYEADELFATLDATTKQIYLTDHFQATLTDTVGFIQDLPTELVAAFKSTLEESRQVDLLLHVIDASDPNHEEHEKVVHDLLKELGMTAIPRLLVYNKMDKAENFIASQFPHISLSAKSDEAAALLRQSILEKIKTLFVPFTITWRQEKSYKLYELDKIALLTSYDVKQELQEIKGYISEKNKWRLEEFYRELS | not soluble |
| MAHHHHHHMAATNSPTEEEVVMRYQQLRQECLAMDSRISELENELHEHQLVADTLKPLNGDRRCHRLVGGALIERTVADILPELVENIKGIEEALAQLNKMLTEKQAAMDEYARKHGVTVAQRQGQTPAGGGGANNDEGEKKPMGADSRGVLV | soluble |
| MMKRALTGIQASGKQHLGNYLGVMQSLIELQEQCQLFVFVADLHSITVDFQPQALKQNNFDLVRTLLAVGLDPQKACLFLQSDLLEHSMMGYLMMVQSNLGELQRMTQFKAKKAEQTRNPNGTLNIPTGLLTYPALMAGDILLYQPDIVPVGNDQKQHLELTRDLAQRIQKKFKLKLRLPQFVQNKDTNRIMDLFDPTKKMSKSSKNQNGVIYLDDPKEVVVKKIRQATTDSFNKIRFAPKTQPGVTNMLTILKALLKEPVNQSLTNQLGNDLEAYFSTKSYLDLKNALTEATVNLLVNIQRKREQISREQVFNCLQAGKNQAQATARTTLALFYDGFGLGSQNIK | soluble |
| MSDEKSTTPTAQLDAPADGNMNDLTSLIQGVLQQTQDRFQHMSDQIIRRIDDMTTRIDDLEKNINDLLQSNQVEHPPSAQ | not soluble |
| MRTVEVVGRGPAVDALAAFLADIDVSVAQPSTPADSSGDLAIVVDTVGSERFAAWNDRAKDDAIPWVAVELGGVGGVPVTDAAISGFGPETGCFDCLRTRVEATVDDTEEVTGAPAAATQRFAGALAGRLVTQFLDGDAALLGTVTELPHTQRRFLPVPGCDCGGTQGHSLGDGRQTAPDSEALSRAELGLDDRVGIATEVGEVESFPAPYYLSTLADTAGFSDVSAAAKAAGVAIDWDTAFMKALGENYERYAAGVYREGNLQHGTVADVPAAVTPDTFVRDEAEWDESHALPWVPAENLLTDEQRSLPAETVHYPPPSNAVRPATTTGLGLGNTVTEALLTGLYEVIERDAAMLSWYSTFDPLRVAIDEHEQYETLRRRATSEGLDVTALLLTQDVDVPVITVALAQDEWPRFALGTDADLNPGAAAVGALEEALQNWMELDSMGPEAAMDAQGAIGRYAKSPGEAADLTASETAVPLDSLGPDVDLSGEAELETLCDRAADAGLAPYGTRLTTRDLEQLGFEAVRVVCPSAQPLFFGESFFGERAETVPADLGFEPRLDRDHHPFP | soluble |
| MANFIDRRLNAKGKSTVNRQRFINRYKQQIKKAVSDAVTRRSVTDVDKGEKISIPTRDISEPMFHQGKGGVRDRVHPGNDQFTRGDKIDRPQGGSGGGAGKGDASDSGEGNDDFVFEISKDEYLELLFEDLELPNLQKNRLNKLVEYQIYRAGFTNDGVPANINIVRSLRSSLARRIAMSASKKKLLKESEQELAELENIPGTKAELILDLKAQIEELKRKIAKVPFIDTFDLRFNNFSRREVPSSQAVMFCLMDVSGSMDQATKDMAKRFYILLYLFLTRTYKNLEVVYIRHHTQAKEVDEHEFFYSQETGGTIVSSALKLMHEIQQARYPADEWNIYAAQASDGDNWADDSPTCKQLLEQKILPLVRYFSYIEITNRAHQTLWREYESLQQHYDNIAVQHIRQAEDIYPVFRELFKKQAVLEHHHHHH | not soluble |
| MSFFDKVKGAINSGRDELTRQVGRFKNKKFMQGTVAVCARIAVSSDGVSSEEKQKMMGFLRSSEELKVFDTNEVIEFFNKLVSSFDFDVEIGKGETMKYILALKDQPEAAQLALRVGIAVAKSDGNFDQDEKLASREIAIALGFDPAEFGL | not soluble |
| MLGRGEGMRLEEARIAVDEALSAYRRCVEAEVEEYGPEYERVTFMEYEAPAPDPCAEAFLRLVEAVRAYEAAGGSREDLDLGRERKRVYEALDKG | soluble |
| MSNVAKSYKSSDPVIAYCSEHTTIQSPLQAELLKETLDNAPMSMMLGAPEVLTFGQNFIRSFGGRRVIDVGTYTGASALAWALAVPDDGEVFTFDIDHTNYKKFGVPIISKCEKTFKKIRAIEGSALDGLDKLIADGQSGTFDFAFIDADKVNYSNYYDRAVTLLRKGGVIFVDNSLWNGSVCDPARRTEPSTVAIHQANDKIFKDDRTYSALINLGDGTHIAFKK | not soluble |
| MPLSYSSPSSSEERSDDPSKYDGDFGVPQICFCGKQLELVERLIGDQKKTFLKCPMSGQDDNYHVDKGWDLAVHEQCFCIDKRFGEHRELIQNAFKFGGDSNRLQINQIHAEIEDLKHRLDKKDAEIARLMDALGKK | not soluble |
| MVPSRNGEGTELRGHMEIEKELALEKKTYGSHIKILILGGPLSGKSTIFKQMQIIHVDGFKTDQELIQYRGLIDNNIRDIYLQLIAGSRVVGIPLDPIEHITYEIDEIYAPMSDAFSVRTISELLEPLTEFWNSKQIQEIYKRRCEFELLDSTKYYLENLTRIADPTYLPNQEDIVHSRKATMSINSIVFEYTGVSLLMIDVGGQRSERKKWLHLFDDAKVVLFVIDLTGYAKRSEESRMELSRFPKFFRDVGSNAYDMKVALKIFNEVAAASALANAVFLLFFNKVDLFKEILSQVNLQPCFSKFDGENTYEETSKYICEKFIRAASSKKSVFPHFTTATNTENVKLVFRACMESVFKANAKATGLS | not soluble |
| MPRPSQRLLSPEIITEAAMRMVDLTGDFTMPGLAERLKVRPSSLYNHVSGRAEIIELMRARMMAGIVVADPDGKWSETVAGLAREYRRNYAEHPRLIPLFTAHTVQSGVAFGLYNALAQAFSDGGFTPEEILHAITTVDSFVLGSALDLAAPEVVWATAPEANEAMLAALATSGPNPGRADAAFEFGLRTLIAGLVAQAPIEP | not soluble |
| MLNLRGVEIRKGALDGPAQARLIEALRPVLKAAPLFTPTMPNGKPLSVRMTSAGSLGWVTDKGGYRYQPTHPKGMAWPAIPPEVLDLWHGVTGQDRAPDCCLINYYGEGARMGLHQDRDEADLTWPVVSLSLGDDALFRIGNTSRGGKTESVWLNSGDVVVMGGPARLIYHGIDRIRFGSSRLLPKGGRLNLTLRVAGLEHHHHHH | not soluble |
| AKKAMEQILIPVANPETIENLVNLALVIKDAKQKNGMIALNVINDNNSSENKELQGKRNLEKAAMIAAAADVPVTMVSRYDLNIASGIIHTIKEYEATDVVIGLHRKANIVDSFFGNLAESLLKGTHREVMIAKFLM | not soluble |
